Source: PMC9005620, “The crystal structure of iC3b-CR3 αI reveals a modular recognition of the main opsonin iC3b by the CR3 integrin receptor” (Nature Communications, 2022)

Tests used:
iC3b (human) = test: SPR; iC3b immobilised on a CM5 chip by maleimide coupling via Cys988; αI variants as analyte, 5 injections at 0.32-26.0 μM; 10 mM HEPES-NaOH pH 7.4, 100 mM NaCl, 5 mM MgCl2; 25 °C; steady-state analysis of maximum RU, apparent KD (saturation not reached)
[1] = biological target: CR3 αI domain (von Willebrand A inserted domain of the αM chain of CR3), residues 126-321, C128S/I316G (human) (UniProt P11215); test: SPR; Biacore X100; CR3 αI biotinylated (NHS-PEG4-biotin) and captured on a streptavidin chip, ~900 RU; initial single-concentration injections, then 5 injections of iC3b (0.1-10.0 uM) or C3c (0.7-60.0 uM); 10 mM HEPES-NaOH pH 7.4, 100 mM NaCl, 5 mM MgCl2; 25 °C; steady-state model, saturation not reached, apparent KD
C3c = C3c (UniProt P01024 955-1303); test: as above; conditions: both partners purified
human iC3b (human) [2] = biological target: human iC3b (human) (UniProt P01024); test: SEC + other: SAXS; iC3b mixed with CR3 αI at 1:2 molar ratio, Superdex 200 10/300 GL, 20 mM HEPES-NaOH pH 7.5, 200 mM NaCl, 5 mM MgCl2; SAXS in continuous-flow batch mode at 4 °C
human iC3b (human) [3] = biological target: human iC3b (human) (UniProt P01024); test: SPR; Biacore X100; iC3b immobilised on CM5 chip by maleimide chemistry through Cys988; αI variants as analyte (5 injections at 0.32-26.0 uM); 10 mM HEPES-NaOH pH 7.4, 100 mM NaCl, 5 mM MgCl2; 25 °C; steady-state analysis, apparent KD

CR3 αI domain variant 1A2A (R216A/K231A/R261A/R293A) (from UniProt P11215 142-337) (domain or fragment)
Kd (iC3b (human)): 64.7 µM

human iC3b (from UniProt P01024 749-1303) (complex)
Kd [1]: 5.2 µM

CR3 αI domain variant 2A (R216A/K231A) (from UniProt P11215 142-337) (domain or fragment)
Kd (iC3b (human)): 27.5 µM

CR3 αI domain variant 1A (R261A/R293A) (from UniProt P11215 142-337) (domain or fragment)
Kd (iC3b (human)): 16.8 µM

B1: CR3 αI domain (von Willebrand A inserted domain of the αM chain of CR3), residues 126-321, C128S/I316G (domain or fragment)
chain: RGSPQEDSDIAFLIDGSGSIIPHDFRRMKEFVSTVMEQLKKSKTLFSLMQYSEEFRIHFTFKEFQNNPNPRSLVKPITQLLGRTHTATGIRKVVRELFNITNGARKNAFKILVVITDGEKFGDPLGYEDVIPEADREGVIRYVIGVGDAFRSEKSRQELNTIASKPPRDHVFQVNNFEALKTIQNQLREKGFAIEG
modifications: NHS-PEG4-biotin on random amine groups (only in the SPR where CR3 αI was captured on the streptavidin chip)
notes: Made in bacteria, so not glycosylated at Asn224; also called WT; not shown: His6, N-terminal, cleaved
Kd (C3c): ~39 µM | stoichiometry N (human iC3b (human) [2]): 1 | Kd (human iC3b (human) [3]): 7.1 µM
